# The DeepSol protein solubility set
# Assay: soluble on expression in E. coli; label from the status in PepcDB or PDB records
row,Sequence,soluble on expression in E. coli
1,AIASSLVYPVSQSYHYLSTSNNRLFSAVPSEEKSNKEVKGKAQETSKENTSPATLQDSFGFQLKTGTPDRMPSSFDQATGSERAELEDPDLYRNPEKYVNSRVMIAPFGTKEKPLLIPSRYDSRIIGCTGREAPNDHGVYYMTVKENHDKVCPLCGQVFRLKKVAGGEEASHHHHE,soluble
2,AIATDCEWFDMTWGSSASSGYCSQSDSDEHELELFYTARTSLRKSRKCRDKDEQSEVDWRKQDLSVTEIQQKVKEYNAQVNSNLFMVLNRDGSYTGFIKVQFKLARPVSLPPPRSVSSSSISSSCLGWDGGCQERTSFYLPRDTVKHLHISSSTRAREVIQALLNKFTVVDNPAKYSLYERSQRDNQVYLRKLADDECPLFLRLCAGPNEKVLSLVLKENETGEVNWDAFSFPELQNFLRILQREEEDHVRQIIRRYTLARDKMKEAMKNFSTPG,soluble
3,AIAVLLRHPVLGTEQLPDSWPSHWNTAIVGIPGYSRQRSDLSVVKDVSSPCLPLVAMPSCDDGLASLWNDVSRAV,soluble
4,AKMLGLDFVAVVPRSTSGAKIALIEAQGGRCHFIDRPPEIYSEARRLAAETNGHFMDQFTHAERATDWRGNNNIAESIYHQMIREEHPVPEWLVMSAGTGGTSATLGRYIRYRRHATRLLVVDPENSAFFGGYDSNSCDYATGMPSRIEGIGRPRVEPSFVGQVIDRMMRVPDAASIATARHASSVLGRRVGGSTGTNLWGAFAVVAEMLAAGRSGSVVTILCDGGERYADTYFDDDWVAGEGIDLTGPAAVLDRFA,not soluble
5,ALTSNASGTFDGYYYELWKDTGNTTMTVYTQGRFSCQWSNINNALFRTGKKYNQNWQSLGTIRITYSATYNPNGNSYLCIYGWSTNPLVEFYIVESWGNWRPPGATSLGQVTIDGGTYDIYRTTRVNQPSIVGTATFDQYWSVRTSKRTSGTVTVTDHFRAWANRGLNLGTIDQITLCVEGYQSSGSANITQNTFSQSS,soluble
6,AMDFPQQLEACVKQANQALSRFIAPLPFQNTPVVETMQYGALLGGKRLRPFLVYATGHMFGVSTNTLDAPAAAVECIHAYSLIHDDLPAMDDDDLRRGLPTCHVKFGEANAILAGDALQTLAFSILSDADMPEVSDRDRISMISELASASGIAGMCGGQALDLDAEGKHVPLDALERIHRHKTGALIRAAVRLGALSAGDKGRRALPVLDKYAESIGLAFQVQDDILDVVGDTATLGKRQGADQQLGKSTYPALLGLEQARKKARDLIDDARQSLKQLAEQSLDTSALEALADYIIQRNK,soluble
7,ANIIANTSLTIGPSKLDVAKITPELLASLNEVGGSEANVATGYHAIEFLLWGQDLNGTNAGAGKRAYTDFVVGSGCTNGHCDRRGEYLKAAADLLVQDLEWMEKQWSADEKGNYRQELLTGSAENGLRKMLFGMGSLSLGELAGERMKVALEANSTEDEHDCFSDNTHNSHYYNEQGIYNVYTGTYSRQDGTVLTGPSIANLVAQEDKKAAEEIQKQFDATRSQVGELVTSAEKHNQHFDQLIAAGNAQGNALVNDTIMALVAQTGAIERAAGIVGIDSLSPDTADHEF,not soluble
8,AQKLSATSRILSSSRGPAPDDIADFFGTDRAAQHITLRRLRLGNGRPYAIDNGWYNSEFAPDLLENDVYNSVYSILDRVYGVPVTQAEQTVTAVAADEDTARLLDVTPGAPLLRILRQSLSGDKPVEWCVSLYRTDRYS,not soluble
9,AQLQNLVLKDREATPNDHTFVPRDIRDNVGEVVESTGVPIGESRFTISLRKTSNGRYKSTLKLVVPVVQSQTVNGIVTPVVVRTSYVTVDFDYDARSTTKERNNFVGMIADALKADKMLVHDTIVNLQGVY,soluble
10,ASDDELFSMLDQRFGGGEDLLMSGDNGMTEEKLRRYLKRTVTELDSVTARLREVEHRAGE,soluble
11,ASEEDLAAATEKMQSMKGKKSQAAAALEAEQAKAEKRLSCLLKARTKLSFRVIRDGIKCHGGIHLKKQSEKAELDISVTNTAINNLPSDADIVITHKDLTDRAKAKLPNATHISVDNFLNSPKYDELIEKLKSNLIEREYCHASTRKGNIKLNQTVSSKEEAIKLAGQTLIDNGYVTEDYISKMFDREETSSTFMGNFIAIPHGTEEAKSEVLHSGISIIQIPEGVEYGEGNTAKVVFGIAGKNNEHLDILSNIAIICSEEETLNA,not soluble
12,ASEKLRSKLMSADEAAQFVNHGDKVGFSGFTGAGYPKALPTAIANRAKEAHGAGNDYAIDLFTGASTAPDCDGVLAEADAIRWRMPYASDPIMRNKINSGSMGYSDIHLSHSGQQVEEGFFGQLNVAVIEITRITEEGYIIPSSSVGNNVEWLNAAEKVILEVNSWQSEDLEGMHDIWSVPALPNRIAVPINKPGDRIGKTYIEFDTDKVVAVVETNTADRNAPFKPVDDISKKIAGNFLDFLESEVAAGRLSYDGYIMQSGVGNVPNAVMAGLLESKFENIQAYTEVIQDGMVDLIDAGKMTVASATSFSLSPEYAEKMNNEAKRYRESIILRPQQISNHPEVIRRVGLIATNGLIEADIYGNVNSTNVSGSRVMNGIGGSGDFTRNGYISSFITPSEAKGGAISAIVPFASHIDHTEHDVMVVISEYGYADLRGLAPRERVAKMIGLAHPDYRPLLEEYYARATSGDNKYMQTPHDLATAFDFHINLAKNGSM,not soluble
13,ASGRRAPRTGLLELRCGAGSGAGGERWQRVLLSLAEDALTVSPADGEPGPEPEPAQLNGAAEPGAAPPQLPEALLLQRRRVTVRKADAGGLGISIKGGRENKMPILISKIFKGLAADQTEALFVGDAILSVNGEDLSSATHDEAVQALKKTGKEVVLEVKYMKEVSPYFKNSAGGTSVGWDSPPASPLQRQPSSPGPQPRNLSEAKHVSLKMAYVSRRCTPTDPEPRYLEICAADGQDAVFLRAKDEASARSWAGAIQAQIGT,soluble
14,ASIKENSYFAGGVKSLGFNQHGQDVSVGVMLPGEYTFGTQAPERMTVVKGALVVKRVGEADWTTYSSGESFDVEGNSSFELQVKDATAYLCEYL,soluble
15,ASLSPQPDVSGELNTEALTCIVERLESEIIDGSWIHISYEETDLEMMPFLVAQANKKYPELNLKFVMSVHELVSSIKETRMEGVESARFLVNMGSSGIHISVVDFRVMDGKTSVILFEPAACSAFGPALLALRTKAALEREQLPDCYFAMVELDIQRSSSECGIFSLALAKKLQLEFMNLVKIHEDNICERLCGEEPFLPSDKADRYLPVSFYKHTQGAQRLNEYVE,not soluble
16,ASMTGGQQMGRILVAVLISGTGSNLQALIDSTREPNSSAQIDIVISNKAAVAGLDKAERAGIPTRVINHKLYKNRVEFDSAIDLVLEEFSIDIVCLAGFMRILSGPFVQKWNGKMLNIHPSLLPSFKGSNAHEQALETGVTVTGCTVHFVAEDVDAGQIILQEAVPVKRGDTVATLSERVKLAEHKIFPAALQLVASGTVQLGENGKICWVKEEPLEHHHHHH,soluble
17,ASNIYRLQQAAEAAVKTGRKIAVFGRSMEKAIVNGIELGYIKVPKGTFIEPSELKNLHASEVLIMCTGSQGESMAALARIANGTHRQVTLQPGDTVIFSSSPIPGNTTSVNKLINTIQEAGVDVIHGKVNNIHTSGHGGQQEQKLMLSLIKPKYFMPVHGEYRMQKVHAGLAMDIGIPKENIFIMENGDVLALTSDSARIAGHFNAQDIYVDGNGIGDIGAAVLRDRRDLSEDGVVLAVATVDFNTQMILAGPDILSRGFIYMRESGDLIRESQRVLFNAIRIALKNKDASIQSVNGAIVNALRPFLYEKTEREPIIIPMVL,not soluble
18,ATDMWLERAADVSWEAGAAITGTSERLDVQLDDDGDFHLLNDPGVGGGGSGGGGGGVFWDTPSPKVYPKGDTTPGVYRIMARGILGRYQAGVGVMHEGVFHTLWHTTRGAAIMSGEGRLTPYWGNVKEDRVTYGGPWKLDQKWNGVDDVQMIVVEPGKPAINVQTKPGIFKTAHGEIGAVSLDYPIGTSGSPIVNSNGEIIGLYGNGVILGNGAYVSAIVQGERVEEPVPEAYNPEMLKKRQLTVLDLHPGAGKTRRILPQIIKDAIQKRLRTAVLAPTRVVAAEMAEALRGLPVRYLTPAVQREHSGNEIVDVMCHATLTHRLMSPLRVPNYNLFVMDEAHFTDPASIAARGYIATRVEAGEAAAIFMTATPPGTSDPFPDTNSPVHDVSSEIPDRAWSSGFEWITDYAGKTVWFVASVKMSNEIAQCLQRAGKRVIQLNRKSYDTEYPKCKNGDWDFVITTDISEMGANFGASRVIDCRKSVKPTILDEGEGRVILSVPSAITSASAAQRRGRVGRNPSQIGDEYHYGGGTSEDDTMLAHWTEAKILLDNIHLPNGLVAQLYGPERDKTYTMDGEYRLRGEERKTFLELIKTADLPVWLAYKVASNGIQYNDRKWCFDGPRSNIILEDNNEVEIITRIGERKVLKPRWLDARVYSDHQSLKWFKDFAAGKR,soluble
19,ATTLYLTRHGETKWNVERRMQGWQDSPLTEKGRQDAMRLGKRLEAVELAAIYTSTSGRALETAEIVRGGRLIPIYQDERLREIHLGDWEGKTHDEIRQMDPIAFDHFWQAPHLYAPQRGERFCDVQQRALEAVQSIVDRHEGETVLIVTHGVVLKTLMAAFKDTPLDHLWSPPYMYGTSVTIIEVDGGTFHVAVEGDVSHIEEVKEV,soluble
20,AVKTYGMFIGTQFDSSKFLYSAFQAESNLGIWRFAHDKRPKKQSFCRTEKSRRIAIDIVQGWLAVDYDLVGDVRIIRSVLVVSSEPIQTDYTNFTGLTGKPMELSQLLTITQSQSSAKLVCSCFRVTDKQIHDAMEKQDCTSLTQLQNKLKCGTNCGSCISQIKQMVDSHQHQKGKQQASQQSLAIQIK,not soluble
21,AVPETRPNHTIYINNLNEKIKKDELKKSLYAIFSQFGQILDILVSRSLKMRGQAFVIFKEVSSATNALRSMQGFPFYDKPMRIQYAKTDSDIIAKMKGTFVERDRKREKRKPKSQE,soluble
22,AVVASLKPVGFIASAIADGVTETEVLLPDGASEHDYSLRPSDVKRLQNADLVVWVGPEMEAFMQKPVSKLPGAKQVTIAQLEDVKPLLMKSIHGDDDDHDHAEKSDEDHHHGDFNMHLWLSPEIARATAVAIHGKLVELMPQSRAKLDANLKDFEAQLASTETQVGNELAPLKGKGYFVFHDAYGYFEKQFGLTPLGHFTVNPEIQPGAQRLHEIRTQLVEQKATCVFAEPQFRPAVVESVARGTSVRMGTLDPLGTNIKLGKTSYSEFLSQLANQYASCLKGD,soluble
23,AVVNTDDYVTRTSIFYHAGSSRLLTVGDPYFRVPAGGGNKQDIPKVSAYQYRVFRVQLPDPNKFGLPDTSIYNPETQRLVWACAGVEIGRGQPLGVGLSGHPFYNKLDDTESSHAATSNVSEDVRDNVSVDYKQTQLCILGCAPAIGEHWAKGTASKSRPLSQGDCPPLELKNTVLEDGDMVDTGYGAMDFSTLQDTKCEVPLDICQSICKYPDYLQMSADPYGDSMFFCLRREQLFARHFWNRAGTMGDTVPQSLYIKGTGMRASPGSCVYSPSPSGSIVTSDSQLFNKPYWLHKAQGHNNGVCWHNQLFVTVVDTTRSTNLTICASTQSPVPGQYDATKFKQYSRHVEEYDLQFIFQLCTITLTADVMSYIQSMNSSILEDWNGGSGGNKDPYDKLKFWNVDLKEKFSLDLDQYPLGRKFLVQAGL,soluble
24,CGGCGEDVVGDGAGVVALDRVFHVGCFVCSTCRAQLRGQHFYAVERRAYCEGCYVATLE,soluble
25,CHQDCPQMSPQPEMDRFASEFGEQDVAVDGQAPENALENDEPKYAPQVISEQNAFLMREMMYSNIWGGGNWREGTGWNGTGWRAQKLERRDIGGKTGTTNDSKDA,not soluble
26,DALEVAEKVTAVIFDKTGTLTKLKESAKPAVQELKRMGIKVGMITGDNWRSAEAISRELNLDLVIAEVLPHQKSEEVKKLQAKEVVAFVGDGINDAPALAQADLGIAVGSGDIVLIRDDLRDVVAAIQ,soluble
